# Test results as given in publication PMC6335422 (Nature Communications, 2019).
# T1: Erh1 H9A (S. pombe, UniProt G2TRN4 1-104, H9A)
# T1 construct: Erh1, S. pombe, residues 1-104, point mutant made with the MutanBEST kit; source: E. coli BL21 (Gold), purified (Ni-chelating resin, size-exclusion chromatography)
# T1 sequence (looked up): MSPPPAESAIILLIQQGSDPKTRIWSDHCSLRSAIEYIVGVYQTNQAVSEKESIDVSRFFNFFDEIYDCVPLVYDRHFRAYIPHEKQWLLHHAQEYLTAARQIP
# T2: Erh1 R23A (S. pombe, UniProt G2TRN4 1-104, R23A)
# T2 construct: Erh1, S. pombe, residues 1-104, point mutant made with the MutanBEST kit; source: E. coli BL21 (Gold), purified (Ni-chelating resin, size-exclusion chromatography)
# T2 sequence (looked up): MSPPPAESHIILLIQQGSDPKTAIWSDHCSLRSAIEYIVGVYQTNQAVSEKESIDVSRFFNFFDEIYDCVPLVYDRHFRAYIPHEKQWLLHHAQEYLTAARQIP
# T3: Erh1 D27A (S. pombe, UniProt G2TRN4 1-104, D27A)
# T3 construct: Erh1, S. pombe, residues 1-104, point mutant made with the MutanBEST kit; source: E. coli BL21 (Gold), purified (Ni-chelating resin, size-exclusion chromatography)
# T3 sequence (looked up): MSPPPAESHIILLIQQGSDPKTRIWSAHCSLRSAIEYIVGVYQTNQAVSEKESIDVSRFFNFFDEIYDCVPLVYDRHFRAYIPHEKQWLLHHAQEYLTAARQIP
# T4: Erh1 D68A (S. pombe, UniProt G2TRN4 1-104, D68A)
# T4 construct: Erh1, S. pombe, residues 1-104, point mutant made with the MutanBEST kit; source: E. coli BL21 (Gold), purified (Ni-chelating resin, size-exclusion chromatography)
# T4 sequence (looked up): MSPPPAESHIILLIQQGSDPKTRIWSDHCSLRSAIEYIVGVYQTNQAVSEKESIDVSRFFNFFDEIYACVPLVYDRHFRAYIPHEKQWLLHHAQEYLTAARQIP
# T5: Erh1 E85A (S. pombe, UniProt G2TRN4 1-104, E85A)
# T5 construct: Erh1, S. pombe, residues 1-104, point mutant made with the MutanBEST kit; source: E. coli BL21 (Gold), purified (Ni-chelating resin, size-exclusion chromatography)
# T5 sequence (looked up): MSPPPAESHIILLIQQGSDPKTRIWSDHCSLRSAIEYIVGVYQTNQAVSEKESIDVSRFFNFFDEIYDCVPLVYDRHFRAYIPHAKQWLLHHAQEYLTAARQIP
# T6: GST-tagged Mmi1^1-122 amino-terminal fragment (S. pombe, UniProt O74958 1-122)
# T6 construct: Vector Tev4T1 (modified pGEX-4T1 with a TEV site); source: E. coli BL21 (Gold), purified (glutathione sepharose, SEC)
# T6 sequence (looked up): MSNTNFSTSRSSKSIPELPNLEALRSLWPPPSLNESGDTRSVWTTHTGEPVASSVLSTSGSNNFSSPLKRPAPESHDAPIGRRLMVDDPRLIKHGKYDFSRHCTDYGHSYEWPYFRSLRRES
# B1: GST-tagged YTH domain of Mmi1: carboxy-terminal YTH domain of Mmi1, purified GST fusion (protein)
# chain: SRYFIMLCDNETAIAHAKKTSIWAVKKDSSKRISDAYKKASVYFIFVAQQTYNALGYAQVVSDLNSTELPFWSDSSHAGGVRIKWIKTCNLFSAEISEIVSHMDHGSEARDGMEMMYDEGSRLCTLI
# modifications: left off: GST, end not stated, kept
# notes: carboxy-terminal YTH domain of Mmi1, purified GST fusion
# B2: Mmi1^95-122 peptide (SUMO tag removed) (peptide, UniProt O74958 95-122, looked up)
# chain: GKYDFSRHCTDYGHSYEWPYFRSLRRES
# notes: also called EID; EIM peptide; source: E. coli BL21 (Gold), purified as SUMO fusion, incubated with Erh1, SUMO tag removed by ULP1; not shown: His6, N-terminal, cleaved; SUMO, N-terminal, cleaved
# B3: SUMO-tagged Mmi1 95-122 (domain or fragment, S. pombe, UniProt O74958 95-122, looked up)
# chain: GKYDFSRHCTDYGHSYEWPYFRSLRRES
# notes: SUMO stands after the His6 tag at the N-terminus; also called Mmi1wt; source: E. coli BL21 (Gold), purified (Ni-chelating resin, size-exclusion chromatography); not shown: SUMO, N-terminal, kept
# B4: His-tagged Erh1 (residues 1-104) (natural protein, S. pombe, UniProt G2TRN4 1-104, looked up)
# chain: MSPPPAESHIILLIQQGSDPKTRIWSDHCSLRSAIEYIVGVYQTNQAVSEKESIDVSRFFNFFDEIYDCVPLVYDRHFRAYIPHEKQWLLHHAQEYLTAARQIP
# notes: Erh1 (Enhancer of rudimentary homolog 1), S. pombe, residues 1-104; Cloned into p28a, a modified pET28a without a thrombin cleavage site; Homodimer by SEC and in the crystal; also called Enhancer of rudimentary homolog 1; source: E. coli BL21 (Gold), purified (Ni-chelating resin, SEC)
# B5: Erh1: S. pombe ortholog of human ERH (protein)
# chain: MSPPPAESHIILLIQQGSDPKTRIWSDHCSLRSAIEYIVGVYQTNQAVSEKESIDVSRFFNFFDEIYDCVPLVYDRHFRAYIPHEKQWLLHHAQEYLTAARQIP
# modifications: left off: His6, end not stated, state not stated
# notes: S. pombe ortholog of human ERH
# B6: SUMO tagged Mmi1^95-122 (domain or fragment, S. pombe, UniProt O74958 95-122, looked up)
# chain: GKYDFSRHCTDYGHSYEWPYFRSLRRES
# notes: SUMO protein fused at the N-terminus following the His6 tag (modified pET28a); source: E. coli BL21 (Gold), purified (Ni-chelating resin, SEC); not shown: SUMO, N-terminal, kept
# What was measured:
# Erh1 = experiment: GST pull-down of Erh1 with GST-tagged Mmi1 fragments, Coomassie; type: binding, S. pombe; conditions: GST-Mmi1 fusion incubated with Erh1, glutathione-agarose, SDS-PAGE
# Excerpt: Fig. 1 Mmi1 interacts with Erh1 in a 2:2 stoichiometry. a Shown is a schematic representation of the domain architecture of Mmi1. The disorder score from DISOPRED3 Server[62] and the conservation score are shown below. The conservation score is generated by a Protein Residue Conservation Prediction Server[63] from the sequence alignment of Mmi1 orthologues from S. pombe, S. cryophilus, S. octosporus, and S. japonicus. b–d Interactions of GST tagged Mmi1 peptides (GST-Mmi1) with Erh1 visualized by Coomassie blue staining. The indicated GST-Mmi1 fusion proteins or GST alone were incubated with Erh1. The complexes were collected with glutathione-agarose resin and bound proteins were eluted and then subjected to SDS-PAGE. GST or GST-Mmi1 fusion proteins without Erh1 are shown as a negative control. Source data are provided as a Source Data file. e The raw ITC titration data of Erh1 with SUMO tagged Mmi1^95–122 and its fitting curve are shown. KD dissociation constant, DP differential power, N binding stoichiometry, ΔH binding enthalpy. f ITC fitting curves of Erh1 using SUMO tagged Mmi1^95–122 (magenta), Mmi1^106–122 (blue) and Mmi1^95–111 (green) are shown. g Size-exclusion analysis of Erh1 (magenta) and Erh1-Mmi1^95–122 (blue). Marker sizes are 62.9 KDa (Albumin), 46.7 KDa (Ovalbumin), 20.3 KDa (Chymotrypsinogen), 14.6 KDa (Ribonuclease A). Also shown are theoretical monomer sizes (kDa) of Erh1 protein and Mmi1^95–122 peptide TEXT PRINTED IN THE PICTURE: (e) Mmi1^95–122 - Erh1: KD (μM) 0.83±0.19; N (sites) 0.90±0.01; ΔH (kJ per mol) −106±3.02 | (f) Mmi1^95–122: Erh1 KD (μM): 0.83±0.19 | (f) Mmi1^106–122: Erh1 KD (μM): 9.94±1.19 | (f) Mmi1^95–111: Erh1 KD (μM): no binding | (g) Erh1: 13.2 kDa | (g) Mmi1^95–122: 3.5 kDa
# A region of Erh1 (residues 1–104) was amplified by PCR from the S. pombe genome and cloned into a modified pET28a (Novagen) vector without a thrombin protease cleavage site (p28a). GST-Mmi1^YTH was sub-cloned from a Mmi1^YTH-p28a construct to a modified PGex-4T1 vector with a TEV protease cleavage site (Tev4T1). […]
# [1] = molecular target: B4; experiment: SEC; analytical size-exclusion chromatography, calibrated Superdex75 10/300 GL column; Erh1 alone and Erh1 with Mmi1^95-122 after removal of the SUMO tag by ULP1; conditions: both partners purified
# Erh1 H9A = molecular target: T1, Erh1 H9A; experiment: ITC; SUMO-tagged Mmi1 peptides titrated into Erh1 in the sample cell; MicroCal iTC200, 293 K; 20 mM Tris-HCl pH 7.5, 150 mM NaCl; single-site binding model; conditions: both partners purified
# Erh1 R23A = molecular target: T2, Erh1 R23A; experiment: as above; conditions: both partners purified
# Erh1 D27A = molecular target: T3, Erh1 D27A; experiment: as above; conditions: both partners purified
# Erh1 D68A = molecular target: T4, Erh1 D68A; experiment: as above; conditions: both partners purified
# Erh1 E85A = molecular target: T5, Erh1 E85A; experiment: as above; conditions: both partners purified
# [2] = molecular target: T6, GST-tagged Mmi1^1-122 amino-terminal …; experiment: pull-down; GST-Mmi1 fusion proteins incubated with Erh1, collected with glutathione-agarose resin, eluted, SDS-PAGE with Coomassie blue staining; conditions: both partners purified
# [3] = molecular target: the molecule itself; experiment: SEC; analytical size-exclusion chromatography, calibrated Superdex75 10/300 GL column; Erh1 alone and Erh1 with Mmi1^95-122 after removal of the SUMO tag by ULP1
# [4] = Analytical size-exclusion chromatography (oligomeric state); type: physicochemical
# Procedure: Next, we assessed the stoichiometry of Erh1 and Erh1-Mmi1^95–122 complexes by analytical size-exclusion chromatography (SEC) using a calibrated Superdex75 10/300 GL column (GE Healthcare). Erh1 eluted as a single peak at 11.41 mL, corresponding to an apparent molecular weight (MW) of 26 kDa. With a predicted molecular weight (MW) of ~13.2 kDa, this elution profile likely represents Erh1 homodimers (Fig. 1g). This is consistent with previous reports showing that human ERH protein exists as a dimer in solution[37].
# We next purified SUMO-tagged Mmi1^95–122 and incubated it with Erh1, followed by removal of the SUMO tag by ULP1 enzyme.
# [5] = molecular target: B4; experiment: ITC; MicroCal iTC200, 293 K, 20 mM Tris-HCl pH 7.5, 150 mM NaCl; SUMO-tagged Mmi1 peptides titrated into Erh1 in the cell; single-site binding model; conditions: both partners purified
molecule,measurement,setting,value
B1,interaction with Erh1 (GST pull-down),Erh1,no interaction
B2,stoichiometry N,[1],1 Mmi1 per Erh1 (printed as 2:2)
B3,Kd,Erh1 H9A,1530 ± 205 nM
same,stoichiometry N,Erh1 H9A,1.32
same,Kd,Erh1 R23A,1480 ± 1070 nM
same,stoichiometry N,Erh1 R23A,1.28
same,Kd,Erh1 D27A,2040 ± 366 nM
same,stoichiometry N,Erh1 D27A,1.14
same,Kd,Erh1 D68A,3.96 ± 0.551 µM
same,stoichiometry N,Erh1 D68A,1.34
same,Kd,Erh1 E85A,2150 ± 291 nM
same,stoichiometry N,Erh1 E85A,1.08
B4,binding result,[2],binds
same,stoichiometry N,[3],2
B5,calculated molecular weight of complex with Erh1 by SEC,"[4]; Erh1 associated with Mmi1^95–122 after SUMO tag removal by ULP1, consistent with 2:2 stoichiometry",33 kDa
same,apparent molecular weight by SEC (Erh1 alone),"[4]; Superdex75 10/300 GL, calibrated, predicted monomer ~13.2 kDa, likely homodimer",26 kDa
B6,Kd,[5],830 ± 190 nM
same,stoichiometry N,[5],0.9
